Source: a protein production outcome set (Wang et al. 2014)

Assay: label from the status in PepcDB records

MKDLKDSLKILYQFKTDYLKVTLLLTILQAFVIGPFIYYFFFFILRVIGVPGITDANLGEVFSSPVAVIMLLILALLILLFVYYELGFFIMMAIYQLRGESYTVFKIIQRLNVKAKYFLSYQAIYFLLYFFLLLPIAGLSLPITITENLYLPHFITDELMKTTTGTWLYVIAIAIIFYISARLVFALPYFIEDKSLKISGAIRKSWKFSQKHLFFMLLKWVLIIVVIGFLVSIIATIIMLPLLLVEKITPGIAVVIAGITLTILQVIGFFAAGIFQGIIAQLLVKNAFAIEGQHAPVARNQFPHKKRFIIVAIIVFIIFSGFNIFTVNATLYEPNTKIIAHRGDTMNAVENTVEAIESAAKSGADYSEIDIQETKDHQFVVFHDMTLRRLAGSSKRVADMTLKELQQTKVKSGDYSSHIASFDEIIKTAKKNKIDLLVEVKLHGGESSDMVERLVTLLKKEKVTDKYLVQSLNQPVIEEIEKADPSLKTGIILALNIGNLPKTSADFIVLEDFSINKRLLTQAKQNDKMVFVWTVNKEKLMQMYLRKNVDGIITNYPKKAIELRESFNENDSLRSRIENRLGF
protein production: failed

MEQSVPARGTSPARRLATAARHCLVLAVASILAACTTITAVTPNEPEQRLVWPGPPLQPRIEWVREVYNQKGLGVSPGFWGRIARFVLGEKEERFIRPHGILADEQIFALVDSGAGRVHLIDLKRGTYRLLPEEGKTPMVSPIGIARDSRGAIYVTDSGTGLIHRFSDDGDSFVALDLRPLHRPTGIAFNPVTGLLYVAETGAHRIVAFDSAGKETLRIGGSGMEPGAFNFPTDLAVMADGRLLVTDSLNSRIQIFTADGKPAGSFGEAGDTPGRFTRPKGVAVDSEGHIYVCDSQQDMVQIFDETGRLLLAFGDKGSLPGQFWMPSGIHIANDMIYVSDTYNQRVQVFRYLKEEPWGQDPHTPD
protein production: failed

MEHASKRDTMAPSGTIPGNGGVNAPSAARVDWVDYAKGICIVMVVMMHSVLGVELAAGETGFMHVAVAFAKPFRMPDFFLISGLFLSLVIDRDWRTYLDRKVVHFAYFYVVWVTIQFGFKAPAFAAETSWREVGLLYLESFIEPFGTLWFIYLLPVFFVVTKLTRRVPPLAIWLIAAALETARIATGWTAIDEFCARFVYFYSGYLFAPYVFALSDRARSHPGPALAALATWALINAGLVAYGASEWKVVSLVLGFAGACAIITMGTLLARAQWLNFFRFCGEHSIVIYLAFFLPMAATRTLLLRTGVIPDIGTVSLIVTIAGVLGSLAIWQAALRLGADFLFERPDAFWIAPKKAGVRLQAAE
protein production: failed

MLVWLSDSQAVALVGLVGGIALGLAARLGRFCTLGAIEDLLYGGSDVRMRMWVLAIGAAMAGSFGLMGLGWLDPGQSYYLSIRWMPLASILGGLMFGYGMALAGNCGYGSIARLGGGDLRAFVIVLVMGVFTYVTLAGPLAPLRNLLFPQIEVAGDLPPGLAHHAHALTGLPVHVIGIGIGLILCLGALSSRDMRQEPKSIFWSLVVAAAIVGGWAGSYWVYQHGFDGLQVVSHSFSAPVGESILYAMTGSVRPLSFAVGSVAGVWAGAFIGSLIKGHFRWEACEDPRELRRQILGAAIMGTGAVIAMGCTVGQGLTAFSLLAISAPVTFLAIFAGAALGLRQLIEGFSAAE
protein production: failed

MLKTSALAPCGKPMLIWPSQTSARRHGFSEASYCLWRSKFGGMSMPDAKRLKDLEAENTRLKKLLAEQVFQNDLIKDALQKMVSAPARRALVREWIAGGASERCALAAIGMSASALRYRPREDRNVELRERILALAHRHRRYGVGMISLKLRQEGRLVNYKRVERLYCEQQLQVRRRKRKKVPLGERAPLLRPTKANPVWSMDVVFDRTAEGRAIKCLVIVDDATHEAVAIDVERAISGHGVVRVLDRLAHSRGLPKMIRTDNGKEFCGKAMVAWAHANRVQLRQIQPGKPNQNAYVESFNGRLRDECLNKHGFPTLLHARTEIERWRREYNEHRPKKTIGGMTPAAYAQQLANSDIINPGL
protein production: failed

MSEYLPGIIWLVVLLVVNAFFVGAEFAVISARRSQIEPKAEAGSKAAKTTLWAMEHATLMLATSQLGITVCSLVILNVSEPAIHHLLEIPLGLTSLSGEAIGIIAFVAALLLVTFLHVVLGEMVPKNISFSVPTRAALILAPPLVMVARILKPVIWTLNGIANSILRLFKVEPKDEATSAYTLDEVANIVEQSTRDGMLSDTSGTLTAAFEFTSKTVADVEVPIGEMVLLPATSTPADIQRAVAEHGYSRYILTDDDGTPTGYLHLKDVMDLTTREKFDQPVPAKRIRKLASAYSGSELEDALATMRRSGAHVARVFDAAGNTTGVLFLEDIIEELVGEVQDATST
protein production: not failed

MNIVSQLSPVTLSPELIARFTAIVGDKHALTDPLELEAYITEERNLYRGHSPLVLRPGSTEEVVAICKLANEARVALVPQGGNTGLVGGQTPHNGEVVISLKRMDKIREIDTSSNTITVEAGAILQRVQEKAAEVDRLFPLSLGAQGSCTIGGNLSTNAGGTAALAYGLARDMALGVEVVLADGRVMNLLSKLKKDNTGYDLRDLFIGAEGTLGIITAATLKLFPKPRAVETAFVGLQSPDDALKLLGIAQGEAAGNLTSFELIAETPLDFSVRHANNRDPLEARYPWYVLIELSSPRDDARAALESILERGFEDGIVVDAAIANSVQQQQAFWKLREEISPAQKPEGGSIKHDISVPVAAVPQFIEQANAAVVALIPGARPVPFGHLGDGNIHYNVSQPVGADKAEFLARWHDVSQVVFEVVLRLGGSISAEHGIGVMKRDELAEVKDKTAIELMRSIKALLDPHGIMNPGKVV
protein production: not failed

MFRPENVQALAGLALTLGLCWLVSENRKRFPWGLAIGAVVIQVLLVLVLFGLPQAQQMLRGVNGAVEGLAASTQAGTAFVFGFLAGGDQPYPVSNPGAGFIFAFRVLPVILVVCALSALLWHWKILKWLAQGFGFVFQKTLGLRGPPALATAATIFMGQVEGPIFIRAYLDKLSRSELFMLIAVGMACVSGSTMVAYATILADVLPNAAAHVLTASIISAPAGVLLARIIVPSDPMEKSADLDLSTEDKTYGSSIDAVMKGTTDGLQIALNVGATLIVFVALATMVDKVLGAFPPVGGEPLSIARGLGVVFAPLAWSMGIPWKEAGTAGGLLGVKLILTEFTAFIQLSKVGEALLDERTRMIMTYALCGFANIGSVGMNVAGFSVLVPQRRQEVLGLVWKAMMAGFLATCLTASLVGLMPRSLFGL
protein production: failed

MNISEINGFEVTGFVVRTTNADEMNPMTAKIGNLWEKFYLNAAPKLTDKSKVYGLYTNYESDFTGAFDVIACSDTLSPQLLSESVKTKVSSGKYVTFSATGEMPQVVIDLWNEVWNYFASEHCPHKRAYTTDFEYYKSANTVEISIAVR
protein production: not failed

MSVAHENARRIISDILGKQNIERVWFVGCGGSLTGFWPGKYFLDCEASKLAVGYITSNEFVHATPKALGKNSVVILASQQGNTAETVAAARVAREKGAATIGLVYQPDTPLCEYSDYIIEYQWARYPETVDPAQQKAAYSLWLALEILAQTEGYAQYDELVSAFGRFSDVVHGAQRQVQEDAQRFAAEWKDEKVVYMMGSGPSFGAAHQESICILLEMQWINSASIHSGEYFHGPFEITEPGTPFILLQSSGRTRPLDDRAIRFIERYQGKLQLIDADKLGIQDLSTDVGEYFCGLLHNCVLDVYNLALATARNHPLTTRRYMWKVEY
protein production: not failed

RSRIDTALNRGRCGLWDWDLSRGRIFWSQSMFTILGLESRNDLLTFGEVNALVKGEDIDLFAIADELMAGRVDHIDHSFQMRHAHGHWIWLRMRCELTQEAGATEKHLIGIAVDITEQKSLAERSVEADLRLRDAIETIPEAFVLWDAENRLVLCNSHFQRL
protein production: failed

GSSGSSGMPMTLGYWDIRGLAHAIRLFLEYTDSSYEEKRYTMGDAPDYDQSQWLNEKFKLGLDFPNLPYLIDGSHKITQSNAILRYLGRKHNLCGETEEERIRVDILENQLMDNRMVLARLCYNADFEKLKPGYLEQLPGMMRLYSEFLGKRPWFAGDKITFVDFIAYDVLERNQVFEAKCLDAFPNLKDFIARFEGLKKISDYMKTSRFLPRPMFTKMATWGSNSGPSSG
protein production: not failed

MHIPENLYVVGTMNIADRSLALVDLALRRRFAFVGLEPRLGQVWRDWVVKECAVDPGLVADIERRIAELNDQIAADARLGKQFRIGHSYVTPAHRLEAGDTKKWFLQVVETEIGPLLDEYWFDAPDEAQKAIARLTQGLEHHHHHH
protein production: failed
